Test results taken from patent publication US20260232827A1 (Zymeworks, published 2026).

T1: human sodium-dependent phosphate transporter 2B (NaPi2b) (human, UniProt O95436 1-690)
T1 construct: UniProt ID is given as 095436 [sic]; also called hNaPi2b; Hu NaPi2b
T1 sequence: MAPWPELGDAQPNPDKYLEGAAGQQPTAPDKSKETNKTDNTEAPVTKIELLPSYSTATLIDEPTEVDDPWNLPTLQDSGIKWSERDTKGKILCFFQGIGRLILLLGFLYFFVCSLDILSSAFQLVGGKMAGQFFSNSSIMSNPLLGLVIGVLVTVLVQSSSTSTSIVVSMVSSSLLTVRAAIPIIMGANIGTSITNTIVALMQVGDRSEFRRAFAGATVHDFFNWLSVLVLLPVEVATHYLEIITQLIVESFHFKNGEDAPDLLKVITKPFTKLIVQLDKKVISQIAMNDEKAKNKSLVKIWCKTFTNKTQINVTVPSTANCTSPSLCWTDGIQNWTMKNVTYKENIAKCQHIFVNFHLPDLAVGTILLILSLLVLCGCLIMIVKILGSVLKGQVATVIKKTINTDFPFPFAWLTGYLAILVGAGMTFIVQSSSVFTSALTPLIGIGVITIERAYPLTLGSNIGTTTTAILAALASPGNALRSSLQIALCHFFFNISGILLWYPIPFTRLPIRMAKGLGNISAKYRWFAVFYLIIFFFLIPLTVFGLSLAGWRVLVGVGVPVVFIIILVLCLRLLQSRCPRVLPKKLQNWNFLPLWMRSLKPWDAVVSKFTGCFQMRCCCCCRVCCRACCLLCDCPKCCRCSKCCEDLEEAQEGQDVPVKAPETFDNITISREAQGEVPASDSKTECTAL

T2: cynomolgus monkey NaPi2b (cynomolgus monkey, UniProt O95436 1-690 (human entry))
T2 construct: also called Cyno NaPi2b; Cy NaPi2b
T2 chain: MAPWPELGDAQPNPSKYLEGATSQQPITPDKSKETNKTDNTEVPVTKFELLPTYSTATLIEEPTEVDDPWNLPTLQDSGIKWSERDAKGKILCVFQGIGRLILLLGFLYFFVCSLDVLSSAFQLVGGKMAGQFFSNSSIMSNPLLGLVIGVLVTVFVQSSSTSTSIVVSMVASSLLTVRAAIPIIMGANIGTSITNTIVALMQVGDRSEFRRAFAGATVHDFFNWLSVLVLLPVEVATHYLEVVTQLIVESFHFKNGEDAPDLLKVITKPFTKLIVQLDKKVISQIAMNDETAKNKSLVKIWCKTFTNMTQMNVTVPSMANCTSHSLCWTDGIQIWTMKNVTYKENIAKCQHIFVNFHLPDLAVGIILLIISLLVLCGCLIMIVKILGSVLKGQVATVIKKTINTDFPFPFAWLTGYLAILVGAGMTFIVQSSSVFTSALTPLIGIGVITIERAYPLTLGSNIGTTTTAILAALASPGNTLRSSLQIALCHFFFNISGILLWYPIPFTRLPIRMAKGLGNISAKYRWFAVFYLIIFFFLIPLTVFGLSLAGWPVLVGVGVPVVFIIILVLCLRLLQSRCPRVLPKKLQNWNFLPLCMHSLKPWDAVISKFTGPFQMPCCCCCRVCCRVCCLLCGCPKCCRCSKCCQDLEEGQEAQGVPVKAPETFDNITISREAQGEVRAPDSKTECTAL

T3: mouse NaPi2b (mouse, UniProt Q9DBP0 1-697)
T3 construct: also called Ms NaPi2b; CL #13476
T3 sequence: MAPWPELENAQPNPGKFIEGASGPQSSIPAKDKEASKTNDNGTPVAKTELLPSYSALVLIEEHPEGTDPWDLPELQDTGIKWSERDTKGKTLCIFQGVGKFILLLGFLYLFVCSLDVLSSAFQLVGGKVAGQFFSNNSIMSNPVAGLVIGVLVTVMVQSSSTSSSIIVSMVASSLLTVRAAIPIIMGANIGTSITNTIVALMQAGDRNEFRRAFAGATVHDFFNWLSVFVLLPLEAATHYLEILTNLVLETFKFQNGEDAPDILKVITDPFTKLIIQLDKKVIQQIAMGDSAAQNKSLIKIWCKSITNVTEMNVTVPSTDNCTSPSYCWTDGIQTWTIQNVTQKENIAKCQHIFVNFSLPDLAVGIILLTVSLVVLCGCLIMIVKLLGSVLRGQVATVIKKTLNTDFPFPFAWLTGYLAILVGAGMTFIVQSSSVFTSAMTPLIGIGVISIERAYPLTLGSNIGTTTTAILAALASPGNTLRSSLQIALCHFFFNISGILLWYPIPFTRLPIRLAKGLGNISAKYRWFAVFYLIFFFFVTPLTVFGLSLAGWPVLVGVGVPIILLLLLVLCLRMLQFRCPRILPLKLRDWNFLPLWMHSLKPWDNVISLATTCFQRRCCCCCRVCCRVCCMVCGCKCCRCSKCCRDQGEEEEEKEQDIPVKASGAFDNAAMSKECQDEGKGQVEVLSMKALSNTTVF

T4: Construct 6 (NaPi2b del 317-333) (human, UniProt O95436 1-690)
T4 construct: Deletion construct on HEK293-6e cells; also called CL_#29919
T4 sequence: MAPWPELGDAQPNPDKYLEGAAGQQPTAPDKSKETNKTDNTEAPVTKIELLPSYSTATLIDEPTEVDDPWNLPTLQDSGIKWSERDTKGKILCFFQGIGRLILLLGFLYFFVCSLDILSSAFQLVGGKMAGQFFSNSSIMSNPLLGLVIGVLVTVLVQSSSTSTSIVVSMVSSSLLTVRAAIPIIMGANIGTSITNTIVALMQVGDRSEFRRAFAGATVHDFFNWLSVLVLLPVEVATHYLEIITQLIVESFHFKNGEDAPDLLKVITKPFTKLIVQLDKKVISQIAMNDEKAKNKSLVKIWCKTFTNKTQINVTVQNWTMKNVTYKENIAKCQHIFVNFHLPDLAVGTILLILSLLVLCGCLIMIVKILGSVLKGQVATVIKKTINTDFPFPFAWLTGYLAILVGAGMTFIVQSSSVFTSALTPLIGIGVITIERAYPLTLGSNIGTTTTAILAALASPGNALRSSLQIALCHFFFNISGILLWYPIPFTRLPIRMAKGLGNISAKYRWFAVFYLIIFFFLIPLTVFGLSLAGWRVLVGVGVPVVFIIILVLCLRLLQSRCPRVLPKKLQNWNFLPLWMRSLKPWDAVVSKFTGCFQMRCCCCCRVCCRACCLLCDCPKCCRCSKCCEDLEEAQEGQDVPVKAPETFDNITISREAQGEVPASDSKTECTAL

T5: Construct 7 (NaPi2b del 317-326) (human, UniProt O95436 1-690)
T5 construct: Deletion construct on HEK293-6e cells; also called CL_#29921
T5 sequence: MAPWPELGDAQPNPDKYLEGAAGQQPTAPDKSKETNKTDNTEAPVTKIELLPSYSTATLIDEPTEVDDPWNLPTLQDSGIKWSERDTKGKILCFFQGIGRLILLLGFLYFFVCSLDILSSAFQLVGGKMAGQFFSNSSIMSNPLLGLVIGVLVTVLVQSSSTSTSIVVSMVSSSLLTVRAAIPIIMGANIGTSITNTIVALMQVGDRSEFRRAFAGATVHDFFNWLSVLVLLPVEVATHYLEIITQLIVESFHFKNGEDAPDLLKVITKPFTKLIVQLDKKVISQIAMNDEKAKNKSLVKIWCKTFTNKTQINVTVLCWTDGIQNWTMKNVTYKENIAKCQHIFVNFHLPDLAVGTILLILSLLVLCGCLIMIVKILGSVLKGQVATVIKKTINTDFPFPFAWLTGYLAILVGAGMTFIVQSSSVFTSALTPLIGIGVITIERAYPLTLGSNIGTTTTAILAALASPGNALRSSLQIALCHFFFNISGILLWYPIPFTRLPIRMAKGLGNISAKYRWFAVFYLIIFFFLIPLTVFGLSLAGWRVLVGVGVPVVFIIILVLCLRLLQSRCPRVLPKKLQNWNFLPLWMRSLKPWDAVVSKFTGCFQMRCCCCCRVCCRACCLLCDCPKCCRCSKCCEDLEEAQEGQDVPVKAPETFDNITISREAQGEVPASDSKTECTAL

B1: v29456 (H1L2) (antibody, human IgG1, kappa)
heavy: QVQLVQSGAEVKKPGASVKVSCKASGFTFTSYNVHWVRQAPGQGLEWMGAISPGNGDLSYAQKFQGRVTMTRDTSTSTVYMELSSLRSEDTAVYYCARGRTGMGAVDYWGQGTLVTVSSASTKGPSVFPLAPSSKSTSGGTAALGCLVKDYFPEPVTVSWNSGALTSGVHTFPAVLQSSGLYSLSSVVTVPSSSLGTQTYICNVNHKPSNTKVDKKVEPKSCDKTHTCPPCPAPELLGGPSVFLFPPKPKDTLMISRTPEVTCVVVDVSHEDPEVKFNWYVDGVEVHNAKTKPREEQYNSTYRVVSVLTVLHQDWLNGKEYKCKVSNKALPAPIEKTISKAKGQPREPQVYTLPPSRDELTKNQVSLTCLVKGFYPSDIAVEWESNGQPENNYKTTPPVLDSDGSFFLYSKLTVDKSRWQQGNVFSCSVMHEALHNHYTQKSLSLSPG
light: DVQMTQSPSSLSASVGDRVTITCRASQDVYSYLNWYQQKPGKAVKLLIYYTSRLQSGVPSRFSGSGSGTDYTLTISSLQPEDFATYYCQQYNIFPWTFGQGTKLEIKRTVAAPSVFIFPPSDEQLKSGTASVVCLLNNFYPREAKVQWKVDNALQSGNSQESVTEQDSKDSTYSLSSTLTLSKADYEKHKVYACEVTHQGLSSPVTKSFNRGEC
notes: Humanized IgG1/kappa; heavy chain ends at G446 (EU); also called humanized antibody variant v29456
B2: v21995 (palivizumab, anti-RSV negative control) (antibody, human IgG1, kappa, V domains shown)
VH: QVTLRESGPALVKPTQTLTLTCTFSGFSLSTSGMSVGWIRQPPGKALEWLADIWWDDKKDYNPSLKSRLTISKDTSKNQVVLKVTNMDPADTATYYCARSMITNWYFDVWGAGTTVTVSS
VL: DIQMTQSPSTLSASVGDRVTITCKSQLSVGYMHWYQQKPGKAPKLLIYDTSKLASGVPSRFSGSGSGTEFTLTISSLQPDDFATYYCFQGSGYPFTFGGGTKLEIKR

Legend:
[1] = biological target: T6, KLH (Sigma-Aldrich, H8283); assay: non-specific ELISA, KLH coated, antibody 100 nM
T6 construct: Coating of the non-specific ELISA
Description: NS-ELISA was used to measure the propensity of the antibodies to bind to a range of biomolecules to emulate the undesirable non-specific interactions to biological matrices in vivo as described below.
NS-ELISA was carried out in Corning® 96-well EIA/RIA Easy Wash™ Clear Flat Bottom Polystyrene High Bind Microplate coated overnight at 4° C. with 50 μL of Heparin (Sigma, H3149) diluted with 50 mM sodium carbonate pH 9.6 to a final concentration of 250 μg/mL. The plate was incubated for 2 days at room temperature, wells that were coated with heparin were not covered to allow air dry. […] 50 μL each of insulin, KLH, dsDNA and ssDNA were added to a 96 well plate, followed by the incubation at 37° C. for 2 h. The coating materials were removed, and the plate was blocked with 200 μL of Gibco™ PBS pH7.4, 0.1% Tween®20, and incubated for 1 h at room temperature with shaking at 200 rpm. The plate was washed 3 times with Gibco™ PBS pH7.4, 0.1% Tween 20. 50 μL of each mAb at 100 nM (15 mg/mL) in Gibco™ PBS pH 7.4, 0.1% Tween®20 was added in duplicate to the wells and incubated for 1 h at room temperature with shaking at 200 rpm. […] Plates were incubated for 1 h at room temperature, with shaking at 200 rpm. The plate was washed three times with Gibco™ PBS pH7.4, 0.1% Tween 20, and 100 μL of TMB substrate (Cell Signaling Technology©, 7004P6) added to each well. […] Binding scores were calculated as the ratio of the ELISA signal of the antibody to the signal of a well containing buffer instead of the primary antibody.

[2] = biological target: T1, human sodium-dependent phosphate …; assay: flow cytometry, IGROV-1 cells (endogenous NaPi2b); set-up: unit not given here
[3] = biological target: T1, human sodium-dependent phosphate …; assay: flow cytometry, HEK293-6e cells transfected with human NaPi2b
Description: (§1) Briefly, HEK293-6e cells were transfected for ~24 hours to transiently express human NaPi2b, cynomolgus or mouse NaPi2b, at 1 μg of DNA per 1 million cells. Following transfection, 50,000 cells per well were seeded in V-bottom 96-well plates and incubated with 200 nM of primary antibody for 18-24 hours at 4° C. to prevent internalization. […] Following staining and washing, fluorescence was detected by flow cytometry on BD LSRFortessa™ Cell Analyzer (BD Biosciences, Franklin Lake, NJ) with 10,000 minimum events collected per well. The AF647/APC-A GeoMean (fluorescence signal geometric mean, proportional to anti-Human AF647 binding) was calculated for the live singlet cell population for each primary antibody using FlowJo™ v8 software (BD Biosciences, Franklin Lake, NJ). The Bmax and Kd of each primary antibody were calculated using GraphPad Prism Version 9 (GraphPad Software, San Diego, CA)

[4] = biological target: T1, human sodium-dependent phosphate …; assay: flow cytometry, IGROV-1 cells (endogenous NaPi2b); apparent Kd
Description: Briefly, cells were seeded at 50,000 cells/well in conical-bottom 96-well plates and treated with test antibody for 24 hours at 4° C. to prevent internalization. […] Following incubation and washing, fluorescence was detected by flow cytometry on a BD LSRFortessa™ Cell Analyzer (BD Biosciences, Franklin Lake, NJ) with 1,000 minimum events collected per well.

[5] = biological target: T2, cynomolgus monkey NaPi2b; assay: flow cytometry, HEK293-6e cells transfected with cynomolgus NaPi2b
Description: as §1

[6] = biological target: T1, human sodium-dependent phosphate …; assay: flow cytometry, HEK293-6e cells transfected with human NaPi2b; apparent Kd
Description: as §1

[7] = biological target: T3, mouse NaPi2b; assay: flow cytometry, HEK293-6e cells transfected with mouse NaPi2b; apparent Kd
Description: as §1

[8] = biological target: T2, cynomolgus monkey NaPi2b; assay: flow cytometry, HEK293-6e cells transfected with cynomolgus NaPi2b; apparent Kd
Description: as §1

[9] = biological target: T4, Construct 6 (NaPi2b del 317-333); assay: flow cytometry, HEK293-6e cells transfected with Construct 6
Description: (§2) Following transfection, cells were seeded at 50,000 cells/well in conical-bottom 96-well plates and treated with a serial dilution of test antibody for 24 hours at 4° C. to prevent internalization. Cells were treated with final concentrations of all humanized antibodies of 200, 20, or 2 nM. Cells were treated with final concentrations of the reference anti-NaPi2a rabbit antibody of 50, 5, or 0.5 nM. […] Following incubation and washing, fluorescence was detected by flow cytometry on a BD LSRFortessa™ Cell Analyzer (BD Biosciences, Franklin Lake, NJ) with 1,000 minimum events collected per well. […] Background-subtracted AF647 Mean Fluorescence Intensity (MFI) values were calculated by subtracting the average MFI of three technical replicates of unstained (no primary antibody) cells.

[10] = biological target: T5, Construct 7 (NaPi2b del 317-326); assay: flow cytometry, HEK293-6e cells transfected with Construct 7
Description: as §2

[11] = biological target: T1, human sodium-dependent phosphate …; assay: flow cytometry on IGROV-1 cells (endogenous NaPi2b), 24 h at 4 C, anti-human IgG Fc AF647, APC-A GeoMean

Row | Binder | NS-ELISA binding score (signal over buffer well) [1] | Bmax [2] | Bmax [3] | Kd [4] [nM] | Bmax [5] | Kd [6] [nM] | Kd [7] [nM] | Kd [8] [nM] | binding result [9] | binding result [10] | binding result [11]
1 | B1 | 1.37 | 40900 | 2540 | 1.1 | 2010 | 5.2 | 10.6 | 3.2 | – | – | –
2 | B2 | – | – | – | – | – | – | – | – | no binding (tested: 200 nM) | no binding (tested: 200 nM) | no binding (tested: 200 nM)
